Test results from US20080181899A1 (Regeneron, published 2008).

T1: mmDII4-mFc (M. mulatta, UniProt Q9NR61 27-524 (human entry))
T1 construct: also called mmDII4 dimer; not shown: mouse Fc
T1 chain: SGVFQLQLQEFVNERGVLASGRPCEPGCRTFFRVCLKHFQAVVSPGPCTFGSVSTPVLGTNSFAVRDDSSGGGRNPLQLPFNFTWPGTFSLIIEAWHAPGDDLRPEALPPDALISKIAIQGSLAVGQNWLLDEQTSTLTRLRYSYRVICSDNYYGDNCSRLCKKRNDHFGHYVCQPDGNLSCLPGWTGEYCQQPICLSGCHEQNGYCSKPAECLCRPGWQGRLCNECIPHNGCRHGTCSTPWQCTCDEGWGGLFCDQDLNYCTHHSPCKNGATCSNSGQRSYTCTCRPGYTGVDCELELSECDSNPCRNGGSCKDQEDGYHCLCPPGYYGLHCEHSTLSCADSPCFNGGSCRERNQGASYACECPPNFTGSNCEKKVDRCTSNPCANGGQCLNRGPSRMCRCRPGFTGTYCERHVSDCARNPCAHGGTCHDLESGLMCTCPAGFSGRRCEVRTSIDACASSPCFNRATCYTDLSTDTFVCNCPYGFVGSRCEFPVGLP

T2: M. facscicularis DII4 monomer (M. facscicularis, UniProt Q9NR61 27-524 (human entry))
T2 construct: also called mfDII4
T2 chain: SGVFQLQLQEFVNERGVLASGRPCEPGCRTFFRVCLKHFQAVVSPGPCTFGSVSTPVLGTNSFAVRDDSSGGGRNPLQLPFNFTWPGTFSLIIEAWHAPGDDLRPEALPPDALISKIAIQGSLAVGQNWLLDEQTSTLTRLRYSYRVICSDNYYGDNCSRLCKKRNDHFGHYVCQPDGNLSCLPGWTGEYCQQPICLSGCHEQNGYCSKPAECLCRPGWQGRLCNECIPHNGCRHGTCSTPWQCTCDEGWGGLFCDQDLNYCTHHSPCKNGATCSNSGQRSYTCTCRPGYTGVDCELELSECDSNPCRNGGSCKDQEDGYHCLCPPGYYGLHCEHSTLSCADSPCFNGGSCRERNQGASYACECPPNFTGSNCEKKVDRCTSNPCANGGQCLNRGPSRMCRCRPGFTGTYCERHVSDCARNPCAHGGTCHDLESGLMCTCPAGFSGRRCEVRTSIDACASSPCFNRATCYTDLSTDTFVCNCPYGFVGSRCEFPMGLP

T3: M. mulatta DII4 monomer (M. mulatta, UniProt Q9NR61 27-524 (human entry))
T3 construct: also called mmDII4
T3 chain: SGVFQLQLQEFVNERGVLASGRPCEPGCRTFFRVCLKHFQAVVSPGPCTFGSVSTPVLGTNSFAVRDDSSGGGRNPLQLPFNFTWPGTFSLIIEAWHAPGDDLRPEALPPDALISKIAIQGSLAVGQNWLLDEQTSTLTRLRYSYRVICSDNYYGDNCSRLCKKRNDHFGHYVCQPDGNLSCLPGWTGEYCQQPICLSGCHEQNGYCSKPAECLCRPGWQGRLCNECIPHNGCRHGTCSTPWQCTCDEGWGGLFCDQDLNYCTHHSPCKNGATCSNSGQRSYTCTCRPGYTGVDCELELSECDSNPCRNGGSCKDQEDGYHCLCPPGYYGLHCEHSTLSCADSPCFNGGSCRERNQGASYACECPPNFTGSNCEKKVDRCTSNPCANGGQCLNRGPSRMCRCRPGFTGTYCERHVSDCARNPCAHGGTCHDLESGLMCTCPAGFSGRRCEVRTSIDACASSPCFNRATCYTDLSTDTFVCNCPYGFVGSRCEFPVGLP


How the values were obtained:
[1] = target: T4, dimeric hDII4-hFc (human, UniProt Q9NR61 27-524, biotin in Example 3 (biotin-DII4-hFc), site not stated); experiment: cell-based or functional assay
[2] = target: T1, mmDII4-mFc; experiment: SPR BIACORE; antibody captured by anti-hFc; dimer analyte
[3] = target: T5, hDII4-mFc (human, UniProt Q9NR61 27-524); experiment: as above
T5 construct: also called dimeric DII4-mFc; not shown: mouse Fc

[4] = target: T6, monomeric hDII4 (human delta-like ligand 4) (human, UniProt Q9NR61 27-524); experiment: SPR BIACORE; antibody captured by anti-hFc; monomer analyte
T6 construct: also called monomeric DII4 protein
Procedure: (§1) The binding affinities of selected purified antibodies to hDII4, M. facscicularis DII4 (mfDII4, SEQ IN NO:956), and M. mulatta DII4 (mmDII4, SEQ ID NO:957) monomers were determined using a BIACORE™ 2000 & 3000.

[5] = target: T2, M. facscicularis DII4 monomer; experiment: as above
Procedure: as §1

[6] = target: T3, M. mulatta DII4 monomer; experiment: as above
Procedure: as §1

[7] = target: T7, chimeric DII4 protein #6 (human DSL domain, V173-Q218, in mouse DII4) fused to mouse IgG2a-Fc (mouse; human, UniProt Q9JI71 28-173; Q9JI71 220-525); experiment: SPR BIACORE; DII4 protein captured by anti-mouse IgG; antibody at 100 µg/ml
T7 construct: not shown: mouse IgG2a-Fc fragment
Procedure: (§2) Briefly, each of the DII4 proteins was captured (240-470 RU) on goat anti-mouse IgG antibody surfaces, followed by injection of test antibody at a concentration of 100 μg/ml (Table 11).

[8] = target: T8, chimeric DII4 protein #1 (human N-terminal and DSL domains, S27-Q218, in mouse DII4) fused to mouse IgG2a-Fc (human; mouse, UniProt Q9JI71 220-525); experiment: as above
T8 construct: Used as CHO-K1 conditioned medium; not shown: mouse IgG2a-Fc fragment
Procedure: as §2

[9] = target: T9, chimeric DII4 protein #3 (human N-terminal, DSL, EGF-1 and EGF-2 domains, S27-Q283, in mouse DII4) fused to … (human; mouse, UniProt Q9JI71 285-525); experiment: as above
T9 construct: not shown: mouse IgG2a-Fc fragment
Procedure: as §2

[10] = target: T10, chimeric DII4 protein #5 (human N-terminal domain, S27-R172, in mouse DII4) fused to mouse IgG2a-Fc (human; mouse, UniProt Q9JI71 174-525); experiment: as above
T10 construct: not shown: mouse IgG2a-Fc fragment
Procedure: as §2

[11] = target: T4, dimeric hDII4-hFc; experiment: competition ELISA; antibody titrated against 30 pM biotin-DII4-hFc (1 hr); free biotin-DII4-hFc on Notch-hFc plate
Procedure: The ability of the antibodies to block DII4 binding to Notch was evaluated with an ELISA-based immunoassay. Briefly, Notch-hFc recombinant protein was coated on a 96-well plate in PBS buffer overnight at 4° C. at […], and the nonspecific binding sites were blocked with BSA.

Binder	Notch-inducible luciferase assay IC50 (pM), 1 nM hDII4-hFc [1]	Notch-inducible luciferase assay IC50 (pM), 1.5 nM hDII4-hFc [1]	Kd [2]	koff [2]	kon [2]	Kd [3]	koff [3]	kon [3]	Kd [4]	koff [4]	kon [4]	Kd [5]	koff [5]	kon [5]	Kd [6]	koff [6]	kon [6]	binding result [7]	binding result [8]	binding result [9]	further results
318518-01A10-D8 (antibody, human IgG1, HCVR 429 with hIgG1 constant region 950; also called REGN281; 318518-1A10-D8) heavy: not shown VL: EIVMTQSPATLSLSPGERATLSCRASQSVSSYLAWYQQKPGQAPRLLIYDASNRATGIPARFSGSGSGTDFTLTISSLEPEDFAVYYCQHRSNWPPTFGGGTKVEIK	50.5 pM	78.7 pM	0.0147 nM	4.64e-06 s⁻¹	316000 M⁻¹ s⁻¹	0.0163 nM	4.96e-06 s⁻¹	302000 M⁻¹ s⁻¹	0.148 nM	2.3e-05 s⁻¹	156000 M⁻¹ s⁻¹	0.307 nM	2.04e-05 s⁻¹	66400 M⁻¹ s⁻¹	0.329 nM	3.05e-05 s⁻¹	92700 M⁻¹ s⁻¹	binds	binds	binds	binding result [10]: binds; IC50 [11]: 0.042 nM
REGN422 (antibody, human IgG4 S228P, HCVR 901 with modified hIgG4 constant region 952) heavy: not shown VL: EIVLTQSPATLSLSPGERATLSCRASQSVSSYLAWYQQKPGQAPRLLIYDASNRATGIPARFSGSGSGTDFTLTISSLEPEDFAVYYCQHRSNWPPTFGGGTKVEIK	88.2 pM	131 pM	0.0098 nM	4.15e-06 s⁻¹	423000 M⁻¹ s⁻¹	0.0133 nM	4.6e-06 s⁻¹	346000 M⁻¹ s⁻¹	0.144 nM	2.36e-05 s⁻¹	164000 M⁻¹ s⁻¹	0.36 nM	2.88e-05 s⁻¹	80100 M⁻¹ s⁻¹	0.375 nM	3.41e-05 s⁻¹	92700 M⁻¹ s⁻¹	binds	binds	binds	binding result [10]: binds; IC50 [11]: 0.039 nM
REGN421 (antibody, human IgG1, HCVR 901 with hIgG1 constant region 950) heavy: not shown VL: EIVLTQSPATLSLSPGERATLSCRASQSVSSYLAWYQQKPGQAPRLLIYDASNRATGIPARFSGSGSGTDFTLTISSLEPEDFAVYYCQHRSNWPPTFGGGTKVEIK	54.4 pM	87.3 pM	0.013 nM	3.8e-06 s⁻¹	335000 M⁻¹ s⁻¹	0.0137 nM	4.7e-06 s⁻¹	343000 M⁻¹ s⁻¹	0.133 nM	2.17e-05 s⁻¹	163000 M⁻¹ s⁻¹	0.278 nM	2.02e-05 s⁻¹	72800 M⁻¹ s⁻¹	0.333 nM	3.23e-05 s⁻¹	97000 M⁻¹ s⁻¹	binds	binds	binds	binding result [10]: binds; IC50 [11]: 0.045 nM
